The results in this text go back to US7541169B2, “Sulfotransferase sequence variants” (Mayo Foundation for Medical Education and Research, priority 2001, dated 2009).

The subject of this series is SULT1C1. Briefly: SULT1C1 enzyme activity assay: sulfate conjugation of 4-nitrophenol with 35S-PAPS, COS-1 cytosol of recombinant allozymes. Format: biochemical, human. Here is the method:
In some embodiments, activity of SULT1C1 polypeptides is altered relative to the reference SULT1C1. […] Other allozymes can have increased activity relative to the reference SULT1C1. Activity of SULT1C1 polypeptides can be assessed in vitro using a sulfate acceptor substrate such as 4-nitrophenol (4-NP, Sigma Chemical Co., St. Louis, Mo.) and a donor sulfate molecule such as PAPS. In general, recombinant SULT1C1 polypeptides can be incubated at 37° C. with 10 mM of sulfate acceptor substrate in a potassium phosphate buffer (5 mM, pH 7.4) and 0.4 μM labeled PAPS (e.g., ^35S-PAPS from New England Nuclear Life Science Products, Inc., Boston Mass.). Reactions can be stopped by precipitating PAPS and SULT1C1 polypeptide (e.g., with barium hydroxide, barium acetate, and zinc sulfate). After centrifugation of the reaction, radioactivity in the supernatant is assessed. SULT1C1 activity is expressed as nmoles of sulfate conjugated product formed per hour of incubation. See, Campbell, N. R. C. et al., Biochem. Pharmacol., 36:1435-1446 (1987).
Other biochemical properties of allozymes, such as apparent Km values, also can be altered relative to the reference SULT1C1. Apparent Km values can be calculated, for example, by using the method of Wilkinson with a computer program written by Cleland. Wilkinson, Biochem. J., 80:324-332 (1961); and Cleland, Nature, 198:463-365 (1963). As described herein, the apparent Km values for PAPS vary 7-fold among the allozymes tested (Asp60Ala, Arg73Gln, Phe193Leu, Asp200Val, Thr239Ala, and Ser255Ala).
COS-1 Cell Expression: Nine different SULT1C1 expression constructs were made using the p91023(B) expression vector. See, Wong et al., Science (1985) 228:810-815, for a description of the p91023(B) vector. Eight of the constructs were designed to express variant SULT1C1 polypeptides, while the remaining construct was designed to express a wild type SULT1C1. All SULT1C1 cDNA sequences used to create the expression constructs were created by site directed mutagenesis using the method described by Ho et al., Gene (1989) 77(l):51-9. Each SULT1C1 cDNA was amplified by PCR and subcloned into the EcoRI restriction site of the eukaryotic expression vector p91023(B). After subcloning, all inserts were sequenced to assure that no spurious nucleotide point mutations had been introduced during the PCR amplifications. […] As a control, a transfection was also performed with “empty” p91023(B), i.e., vector lacking an insert, to make it possible to correct for endogenous COS-1 cell SULT activity. The control plasmid pSV-β-galactosidase (Promega, Madison, Wis.) was cotransfected with each SULT1C1 construct to make it possible to correct for transfection efficiency. Two independent transfections, each consisting of three separate plates, were performed with each of the expression constructs. After 48 hours in culture, the transfected cells were harvested and high speed supernatant (HSS) cytosol preparations were prepared as described by Wood, T. C. et al., Biochem. Biophys. Res. Commun., 198:1119-1127 (1994). Aliquots of these cytosol preparations were stored at −80° C. prior to assay.
Enzyme Assays: β-galactosidase activity in each of the COS-1 HSS preparations was measured with the β-galactosidase Enzyme Assay System (Promega, Madison, Wis.). SULT1C1 enzyme activity was measured with an assay that involves sulfate conjugation of a sulfate acceptor substrate, 4-nitrophenol (4-NP), in the presence of [^35S]-3′-phosphoadenosine-5′-phosphosulfate (PAPS), the sulfate donor for the reaction. See, Campbell, N. R. C. et al., Biochem. Pharmacol., 36:1435-1446 (1987). The HSS preparations of recombinant SULT1C1 variant proteins described above were used for the activity studies without any further purification. The protein concentration of each recombinant protein preparation was determined by the dye-binding method of Bradford with bovine serum albumin (BSA) as a standard. […]

B1: wild type: reference human SULT1C1 polypeptide (SEQ ID NO:2, GenBank U66036), recombinantly expressed in COS-1 cells (protein, listed as Homo sapiens)
chain: MALTSDLGKQIKLKEVEGTLLQPATVDNWSQIQSFEAKPDDLLICTYPKAGTTWIQEIVDMIEQNGDVEKCQRAIIQHRHPFIEWARPPQPSGVEKAKAMPSPRILKTHLSTQLLPPSFWENNCKFLYVARNAKDCMVSYYHFQRMNHMLPDPGTWEEYFETFINGKVVWGSWFDHVKGWWEMKDRHQILFLFYEDIKRDPKHEIRKVMQFMGKKVDETVLDKIVQETSFEKMKENPMTNRSTVSKSILDQSISSFMRKGTVGDWKNHFTVAQNERFDEIYRRKMEGTSINFCMEL
For B1, where the note is “apparent Km for PAPS, in the presence of 10 mM 4-NP, six PAPS concentrations 0.0625 μM to 2 μM”, the Km is 0.77 ± 0.04 µM. In addition, where the note is “recombinant allozyme in COS-1 cytosol, 10 mM 4-NP, 0.4 μM 35S-PAPS, pH 7.4, percentage of wild type SULT1C1 enzyme activity”, the “% WT activity” value came out at 100%.
